Source: patent publication US20240207383

Molecular target: ComPC1-CRM197 fusion protein

B1: PglS oligosaccharyltransferase (protein)
chain: MNSIFKKIKNYTIVSGVFFLGSAFIIPNTSNLSSTLYKELIAVLGLLILLTVKSFDYKKILIPKNFYWFLFVIFIIFIQLIVGEIYFFQDFFFSISFLVILFLSFLLGFNERLNGDDLIVKKIAWIFIIVVQISFLIAINQKIEIVQNFFLFSSSYNGRSTANLGQPNQFSTLILITLFLLCYLREKNSLNNMVFNILSFCLIFANVMTQSRSAWISVILISLLYLLKFQKKIELRRVIFFNIVFWTLVYCVPLLFNLIFFQKNSYSTFDRLTMGSSRFEIWPQLLKAVFHKPFIGYGWGQTGVAQLETINKSSTKGEWFTYSHNLFLDLMLWNGFFIGLIISILILCFLIELYSSIKNKSDLFLFFCVVAFFVHCLLEYPFAYTYFLIPVGFLCGYISTQNIKNSISYFNLSKRKLTLFLGCCWLGYVAFWVEVLDISKKNEIYARQFLFSNHVKFYNIENYILDGFSKQLDFQYLDYCELKDKYQLLDFKKVAYRYPNASIVYKYYSISAEMKMDQKSANQIIRAYSVIKNQKIIKPKLKFCSIEY
glycosylation with CPS8, Western blot of periplasmic extracts (anti-His): the ComPC1-CRM197 was also glycosylated by PglS
